Target: Akt WT (transfected) (UniProt P31749)
Test: co-immunoprecipitation (K8/K18 IP, Akt immunoblot, quantified)
Conditions: BHK-21 cells transfected with Akt WT, parent: est. 1.0, read off a plot

Sequence of Akt WT (transfected) (P31749 whole entry): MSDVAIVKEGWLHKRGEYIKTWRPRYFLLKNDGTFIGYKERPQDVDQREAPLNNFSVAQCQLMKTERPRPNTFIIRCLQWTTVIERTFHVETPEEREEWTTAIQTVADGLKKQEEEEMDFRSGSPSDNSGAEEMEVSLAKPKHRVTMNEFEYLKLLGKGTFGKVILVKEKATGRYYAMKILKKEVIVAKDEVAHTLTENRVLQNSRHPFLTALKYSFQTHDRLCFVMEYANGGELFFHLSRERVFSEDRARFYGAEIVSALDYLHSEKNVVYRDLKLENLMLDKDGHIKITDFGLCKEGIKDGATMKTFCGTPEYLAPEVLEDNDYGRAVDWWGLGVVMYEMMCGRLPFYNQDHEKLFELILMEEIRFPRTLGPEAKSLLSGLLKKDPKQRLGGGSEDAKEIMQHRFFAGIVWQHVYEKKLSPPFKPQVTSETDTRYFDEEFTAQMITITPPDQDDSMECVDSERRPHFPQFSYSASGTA
Sequence of K8 WT/K18 WT (transfected) (from UniProt P05787;P05783) K8:R454C (P05787 whole entry, stated change not applied): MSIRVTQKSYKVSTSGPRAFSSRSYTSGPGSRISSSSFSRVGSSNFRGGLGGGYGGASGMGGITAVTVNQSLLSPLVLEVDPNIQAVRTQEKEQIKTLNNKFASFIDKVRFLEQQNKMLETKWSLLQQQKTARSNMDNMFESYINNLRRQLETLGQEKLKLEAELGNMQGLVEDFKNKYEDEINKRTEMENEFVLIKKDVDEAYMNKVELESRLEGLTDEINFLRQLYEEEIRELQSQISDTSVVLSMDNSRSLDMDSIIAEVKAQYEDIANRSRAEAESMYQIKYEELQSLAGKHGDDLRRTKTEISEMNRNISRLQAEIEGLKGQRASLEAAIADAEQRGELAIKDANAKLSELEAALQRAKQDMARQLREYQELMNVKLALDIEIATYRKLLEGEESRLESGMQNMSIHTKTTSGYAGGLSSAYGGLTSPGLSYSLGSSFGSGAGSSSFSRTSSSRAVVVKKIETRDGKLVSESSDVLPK
Sequence of K8 WT/K18 WT (transfected) (from UniProt P05787;P05783) K8:R454C (P05783 whole entry, stated change not applied): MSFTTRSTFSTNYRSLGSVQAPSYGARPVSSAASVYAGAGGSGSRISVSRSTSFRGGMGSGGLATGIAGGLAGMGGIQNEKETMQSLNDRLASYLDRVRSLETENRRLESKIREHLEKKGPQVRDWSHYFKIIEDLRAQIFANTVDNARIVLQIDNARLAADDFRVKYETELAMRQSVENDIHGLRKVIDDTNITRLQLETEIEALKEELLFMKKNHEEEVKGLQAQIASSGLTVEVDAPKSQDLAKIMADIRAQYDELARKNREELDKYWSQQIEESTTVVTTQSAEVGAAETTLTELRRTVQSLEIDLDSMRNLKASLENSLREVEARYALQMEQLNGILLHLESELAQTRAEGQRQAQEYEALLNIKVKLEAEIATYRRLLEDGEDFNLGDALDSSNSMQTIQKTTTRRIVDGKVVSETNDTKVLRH
Sequence of K8 WT/K18 WT (transfected) (from UniProt P05787;P05783) K18:Q284R (P05787 whole entry, stated change not applied): as the sequence (P05787 whole entry, stated change not applied) above
Sequence of K8 WT/K18 WT (transfected) (from UniProt P05787;P05783) K18:Q284R (P05783 whole entry, stated change not applied): as the sequence (P05783 whole entry, stated change not applied) above
Sequence of K8 WT/K18 WT (transfected) (from UniProt P05787;P05783) K8:A319S (P05787 whole entry, stated change not applied): as the sequence (P05787 whole entry, stated change not applied) above
Sequence of K8 WT/K18 WT (transfected) (from UniProt P05787;P05783) K8:A319S (P05783 whole entry, stated change not applied): as the sequence (P05783 whole entry, stated change not applied) above
Sequence of K8 WT/K18 WT (transfected) (from UniProt P05787;P05783) K8:R341H (P05787 whole entry, stated change not applied): as the sequence (P05787 whole entry, stated change not applied) above
Sequence of K8 WT/K18 WT (transfected) (from UniProt P05787;P05783) K8:R341H (P05783 whole entry, stated change not applied): as the sequence (P05783 whole entry, stated change not applied) above
Sequence of K8 WT/K18 WT (transfected) (from UniProt P05787;P05783) K18:T294M (P05787 whole entry, stated change not applied): as the sequence (P05787 whole entry, stated change not applied) above
Sequence of K8 WT/K18 WT (transfected) (from UniProt P05787;P05783) K18:T294M (P05783 whole entry, stated change not applied): as the sequence (P05783 whole entry, stated change not applied) above
Sequence of K8 WT/K18 WT (transfected) (from UniProt P05787;P05783) K18:I149V (P05787 whole entry, stated change not applied): as the sequence (P05787 whole entry, stated change not applied) above
Sequence of K8 WT/K18 WT (transfected) (from UniProt P05787;P05783) K18:I149V (P05783 whole entry, stated change not applied): as the sequence (P05783 whole entry, stated change not applied) above
Sequence of K8 WT/K18 WT (transfected) (from UniProt P05787;P05783) K8:Y54H (P05787 whole entry, stated change not applied): as the sequence (P05787 whole entry, stated change not applied) above
Sequence of K8 WT/K18 WT (transfected) (from UniProt P05787;P05783) K8:Y54H (P05783 whole entry, stated change not applied): as the sequence (P05783 whole entry, stated change not applied) above

Row | Substance | ratio to parent (K18 WT and the K8 mutant) | ratio to parent (K8 WT and the K18 mutant)
1 | K8 WT/K18 WT (transfected) (from UniProt P05787;P05783) K8:A319S | 0.93 | –
2 | K8 WT/K18 WT (transfected) (from UniProt P05787;P05783) K8:R341H | 0.92 | –
3 | K8 WT/K18 WT (transfected) (from UniProt P05787;P05783) K8:R454C | 1.1 | –
4 | K8 WT/K18 WT (transfected) (from UniProt P05787;P05783) K8:Y54H | 1.1 | –
5 | K8 WT/K18 WT (transfected) (from UniProt P05787;P05783) K18:I149V | – | 1.1
6 | K8 WT/K18 WT (transfected) (from UniProt P05787;P05783) K18:Q284R | – | 1.3
7 | K8 WT/K18 WT (transfected) (from UniProt P05787;P05783) K18:T294M | – | 1.6
